Measurements as given in the RNAGym collection of RNA variant scans (doi:10.7554/elife.80360).

B1: HDV Ribozyme (parent)
chain: GGCCGGCAUGGUCCCAGCCUCCUCGCUGGCGCCGGCUGGGCAACAUUCCGAGGGGACCGUCCCCUCGGUAAUGGCGAAUGGGACCCA

Variants of: B1
Assay: self-cleavage, relative activity (ratio to wild type); higher = more cleavage; co-transcriptional
A43G A77C gave a self-cleavage of 0.0723.
Work on A43G A77G yielded a self-cleavage of 0.332.
For A43U A51C, the self-cleavage was 0.525.
Variant A43U A51U has a self-cleavage of 0.332.
A43U A51G showed a self-cleavage of 0.911.
A43C C49A showed a self-cleavage of 0.172.
In the case of A43C C49U, the self-cleavage is reported as 0.684.
Work on C44A A78G yielded a self-cleavage of 0.175.
C44A A78U gave a self-cleavage of 0.104.
In the case of A42U C44A, the self-cleavage is reported as 0.688.
With A43G G82C the self-cleavage was 0.131.
For A43G A45U, the self-cleavage was 0.584.
Work on A43G A45C yielded a self-cleavage of 0.0504.
In the case of C44A C61A, the self-cleavage is reported as 0.618.
C44A C61G gave a self-cleavage of 0.608.
Variant C44A C61U has a self-cleavage of 0.758.
Work on C44A G54A yielded a self-cleavage of 0.759.
With C44A G54U the self-cleavage was 0.794.
Variant C44A G54C has a self-cleavage of 0.618.
A43G A71G gave a self-cleavage of 0.68.
A43G G53U gave a self-cleavage of 0.577.
For A43G G53C, the self-cleavage was 0.554.
A43G U65C gave a self-cleavage of 0.522.
A43G A56G showed a self-cleavage of 0.26.
Variant C44A C84A has a self-cleavage of 0.541.
C44A C84G showed a self-cleavage of 0.0519.
A43G A78U gave a self-cleavage of 0.178.
A43G A78C showed a self-cleavage of 0.0415.
In the case of A42U C49G, the self-cleavage is reported as 0.312.
Work on A42U C49A yielded a self-cleavage of 0.53.
In the case of A42U G50U, the self-cleavage is reported as 0.727.
Work on A42U G50C yielded a self-cleavage of 0.285.
With C44A C62A the self-cleavage was 0.708.
For C44A C62U, the self-cleavage was 0.723.
C44A C62G showed a self-cleavage of 0.162.
With A43U G52A the self-cleavage was 0.561.
For A43U U65C, the self-cleavage was 0.298.
Variant A43U U65A has a self-cleavage of 0.584.
A43U A83G showed a self-cleavage of 0.0986.
Variant C44A C58G has a self-cleavage of 0.831.
A42U C66U showed a self-cleavage of 0.61.
In the case of A42U C66A, the self-cleavage is reported as 0.511.
A42U C66G showed a self-cleavage of 0.386.
In the case of C44A A51C, the self-cleavage is reported as 0.779.
With A42U G53C the self-cleavage was 0.437.
A42U G53U gave a self-cleavage of 0.698.
In the case of C44A C57A, the self-cleavage is reported as 0.752.
Work on C44A C57G yielded a self-cleavage of 0.684.
C44A U79A gave a self-cleavage of 0.244.
C44A U79C gave a self-cleavage of 0.122.
Variant A43G C64U has a self-cleavage of 0.657.
A43G C64G gave a self-cleavage of 0.644.
A42U G73C showed a self-cleavage of 0.267.
Variant A43U G53U has a self-cleavage of 0.492.
A43U G53A showed a self-cleavage of 0.407.
Work on A42U G74U yielded a self-cleavage of 0.277.
A43U A71U gave a self-cleavage of 0.565.
For A43U A71C, the self-cleavage was 0.543.
For A42U A51U, the self-cleavage was 0.509.
A42U A51G showed a self-cleavage of 0.508.
A43G G80U gave a self-cleavage of 0.0916.
In the case of A43G G80A, the self-cleavage is reported as 0.115.
Work on A43C G81U yielded a self-cleavage of 0.
With A43C G81C the self-cleavage was 0.0773.
Variant A43G G67U has a self-cleavage of 0.527.
In the case of A43G G67A, the self-cleavage is reported as 0.804.
For A43C G74U, the self-cleavage was 0.415.
A43C G74A gave a self-cleavage of 0.509.
Variant A43C G74C has a self-cleavage of 0.0811.
For A42U G55C, the self-cleavage was 0.87.
For A43U G82U, the self-cleavage was 0.0923.
Work on A43U G82C yielded a self-cleavage of 0.
In the case of A43U U46G, the self-cleavage is reported as 0.185.
For A43U U46C, the self-cleavage was 0.383.
Work on A42U A78G yielded a self-cleavage of 0.264.
Variant A43C C64U has a self-cleavage of 0.391.
Variant A43C C64A has a self-cleavage of 0.38.
In the case of A43C U60C, the self-cleavage is reported as 0.532.
A42U C48A showed a self-cleavage of 0.485.
A42U C48U gave a self-cleavage of 0.506.
Variant A42U A43C has a self-cleavage of 0.208.
With A42U A43U the self-cleavage was 0.604.
In the case of A43C C66U, the self-cleavage is reported as 0.306.
A43C C66G gave a self-cleavage of 0.364.
For A43C C66A, the self-cleavage was 0.302.
For A42U C58G, the self-cleavage was 0.443.
With A42U C58A the self-cleavage was 0.481.
A42U C58U showed a self-cleavage of 0.271.
Work on A42U G54C yielded a self-cleavage of 0.381.
For A42U G54A, the self-cleavage was 0.441.
For C44A A56C, the self-cleavage was 0.853.
In the case of C44A G73C, the self-cleavage is reported as 0.696.
Work on C44A G73A yielded a self-cleavage of 0.577.
For C44A G73U, the self-cleavage was 0.397.
In the case of A43G C44A, the self-cleavage is reported as 0.684.
Work on C44A C49A yielded a self-cleavage of 0.554.
Work on C44A C49U yielded a self-cleavage of 0.462.
In the case of C44A C49G, the self-cleavage is reported as 0.511.
In the case of A42U G52A, the self-cleavage is reported as 0.612.
Work on A42U G52U yielded a self-cleavage of 0.592.
For A42U G52C, the self-cleavage was 0.799.
For A43G C61A, the self-cleavage was 0.499.
A43G C61U gave a self-cleavage of 0.739.
A43C C75G gave a self-cleavage of 0.314.
For A43C C75U, the self-cleavage was 0.172.
In the case of A43C C75A, the self-cleavage is reported as 0.298.
With C44A C64G the self-cleavage was 0.814.
Variant C44A C64A has a self-cleavage of 0.665.
With A43U C49A the self-cleavage was 0.755.
A43U C49G showed a self-cleavage of 0.516.
With A43U C49U the self-cleavage was 0.554.
A43G U46A showed a self-cleavage of 0.782.
Variant A43C A56G has a self-cleavage of 0.404.
In the case of A43U C57A, the self-cleavage is reported as 0.69.
A43G C63U gave a self-cleavage of 0.615.
Variant C44A G52A has a self-cleavage of 0.776.
For C44A G52U, the self-cleavage was 0.913.
In the case of A43C G73U, the self-cleavage is reported as 0.604.
With A43C A71G the self-cleavage was 0.762.
With A43G A87U the self-cleavage was 0.554.
A43C C85U showed a self-cleavage of 0.475.
Work on A43C C85G yielded a self-cleavage of 0.519.
Work on A43C C85A yielded a self-cleavage of 0.361.
A42U C86U gave a self-cleavage of 0.58.
For C44A C63U, the self-cleavage was 0.973.
In the case of C44A C63G, the self-cleavage is reported as 0.831.
For C44A G50U, the self-cleavage was 0.594.
C44A G50A gave a self-cleavage of 0.671.
For A43C G59C, the self-cleavage was 0.322.
A43C G59U showed a self-cleavage of 0.639.
With A43G C66A the self-cleavage was 0.554.
Work on A43C C86A yielded a self-cleavage of 0.443.
A43C C86G gave a self-cleavage of 0.399.
Variant A43G C86U has a self-cleavage of 0.739.
With A43G G59C the self-cleavage was 0.637.
In the case of A43G G59U, the self-cleavage is reported as 0.601.
For A43U A56C, the self-cleavage was 0.374.
With A43U A56U the self-cleavage was 0.475.
Variant A43U A77U has a self-cleavage of 0.151.
A43U A77G gave a self-cleavage of 0.277.
Work on A43U A78C yielded a self-cleavage of 0.0817.
With C44A G80A the self-cleavage was 0.169.
For C44A G80C, the self-cleavage was 0.109.
Work on C44A G80U yielded a self-cleavage of 0.118.
In the case of C44G A51C, the self-cleavage is reported as 0.447.
A43C A70G showed a self-cleavage of 0.643.
With A43U C58A the self-cleavage was 0.614.
Variant A43U C58G has a self-cleavage of 0.7.
Variant C44A G74A has a self-cleavage of 0.381.
In the case of A42U A87U, the self-cleavage is reported as 0.56.
Work on C44A G67C yielded a self-cleavage of 0.712.
C44A A77G showed a self-cleavage of 0.396.
C44A A77U gave a self-cleavage of 0.203.
In the case of C44A A77C, the self-cleavage is reported as 0.128.
Variant A42U G76A has a self-cleavage of 0.764.
With A42U G76C the self-cleavage was 0.639.
Variant A43U G54U has a self-cleavage of 0.432.
Work on A43U G54C yielded a self-cleavage of 0.196.
In the case of A43U G81U, the self-cleavage is reported as 0.16.
In the case of A43U G81A, the self-cleavage is reported as 0.148.
For A43G G81A, the self-cleavage was 0.0941.
With A43U A45G the self-cleavage was 0.57.
A43G A70C showed a self-cleavage of 0.9.
A43G A70U gave a self-cleavage of 0.743.
Variant A42U G82U has a self-cleavage of 0.102.
For A42U G82C, the self-cleavage was 0.264.
A43G G54A gave a self-cleavage of 0.378.
